Patent US11419921B2, “Methods of treating neurological disorders” (EnClear Therapies, Inc., priority 2018, dated 2022)

Experiments:
[1] = 1 TAME unit = 1 μmole TAME hydrolyzed/min at pH 8.2, 25° C.; cited from earlier work
(GR)10 [2] = assay: (GR)10 digestion with immobilized proteases (NHS-activated agarose resin) in PBS; type: biochemical; settings: normalized
Experimental: (§1) Protease solutions were prepared at 2 mg/mL in sterile PBS with calcium, magnesium and 200 μL ([…]) were applied to 100 μL of pre-washed NHS-activated agarose resin in 0.8 mL centrifuge columns. Reactions were left 1.5 hour at room temperature with end-to-end mixing, after which resins were washed with 12 resin volumes of PBS. Unreacted sites were blocked with 500 μL of 1M ethanolamine for 15 minutes at room temperature and resins were further washed with 24 resin volumes. Resins were stored at 4 degrees in 500 μL of PBS containing 0.05% sodium azide as preservative.
110 μL of 50 μM (GR)10 dipeptide repeats prepared in PBS were added to each immobilized protease and incubated 5 minutes at room temperature with end-to-end mixing. Columns were spun down 1 minute at 1,000 Xg to recover digested GR dipeptides. Columns were washed with 110 μL of PBS to increase (GR)10 recovery. This procedure was repeated with 60 minutes digestion time. 100 μL of each samples were transferred to a new tube and 5 μL of 10% TFA followed by 300 μL of Dilution Solution were added. The reaction mixtures were analyzed by LC/MS to determine the concentration of GR repeats of different lengths.

(GR)10 [3] = assay: (GR)10 digestion with immobilized proteases in human cerebrospinal fluid (CSF); type: biochemical; settings: immobilized enzyme
Experimental: as §1
200 μM of (GR)10 were diluted in human cerebrospinal fluid (CSF) and 400 μL were applied to each immobilized proteases. The reaction was incubated 5 minutes at room temperature with end-to-end mixing. Columns were spun down 1 minute at 1,000 Xg to recover digested GR dipeptides. Columns were washed with 12 resin volumes of PBS. The procedure was repeated with 60 minutes digestion time. 100 μL of each samples were transferred to a clean tube, flash-frozen and subsequently used for LC/MS quantification of GR repeats of different lengths. The remaining 300 μL of each samples were flash-frozen and used to assess neuron toxicity.
(GR)10 was digested with exemplary immobilized enzymes as described above in the subsection titled “(GR)10 digestion with immobilized proteases in CSF” of Example 3. Clostripain experiments were conducted with and without DTT activation (no DTT during digestion). The results obtained after 5 and 60 minutes of reaction time are presented in Table 25 and shown in FIG. 5 (commercial and in-house immobilized trypsin), FIG. 6 (immobilized elastase, FIG. 7A (immobilized clostripain without DTT) and FIG. 7 (immobilized clostripain with 2.5 mM DTT).

[4] = resin wash from 60 min reaction

B1: TPCK-trypsin: TPCK-trypsin; ThermoFisher Cat #20233 (protein, UniProt P00760 24-246, looked up)
Serine protease 1: IVGGYTCGANTVPYQVSLNSGYHFCGGSLINSQWVVSAAHCYKSGIQVRLGEDNINVVEGNEQFISASKSIVHPSYNSNTLNNDIMLIKLKSAASLNSRVASISLPTSCASAGTQCLISGWGNTKSSGTSYPDVLKCLKAPILSDSSCKSAYPGQITSNMFCAGYLEGGKDSCQGDSGGPVVCSGKLQGIVSWGSGCAQKNKPGVYTKVCNYVSWIKQTIASN
modifications: TPCK-treated
Activity [1]: 308 TAME units/mg of protein

B2: Commercial Trypsin: commercial immobilized trypsin, presumably the ThermoFisher immobilized TPCK-trypsin of Example 2 (protein, UniProt P00760 24-246, looked up)
Serine protease 1: B1 Serine protease 1
modifications: TPCK-treated, immobilized on agarose resin
(GR)1 ((GR)10 [2]; Immobilized - 5 min reaction): 301.2 µM
(GR)2 ((GR)10 [2]; Immobilized - 5 min reaction): 0.0 µM
(GR)3 ((GR)10 [2]; Immobilized - 5 min reaction): 0.0 µM
(GR)4 ((GR)10 [2]; Immobilized - 5 min reaction): 0.0 µM
(GR)5 ((GR)10 [2]; Immobilized - 5 min reaction): 0.0 µM
(GR)6 ((GR)10 [2]; Immobilized - 5 min reaction): 0.0 µM
(GR)8 ((GR)10 [2]; Immobilized - 5 min reaction): 0.0 µM
(GR)10 ((GR)10 [2]; Immobilized - 5 min reaction): 0.0 µM
(GR)1 ((GR)10 [2]; immobilized - 60 min reaction): 308.6 µM
(GR)2 ((GR)10 [2]; immobilized - 60 min reaction): 0.0 µM
(GR)3 ((GR)10 [2]; immobilized - 60 min reaction): 0.0 µM
(GR)4 ((GR)10 [2]; immobilized - 60 min reaction): 0.0 µM
(GR)5 ((GR)10 [2]; immobilized - 60 min reaction): 0.0 µM
(GR)6 ((GR)10 [2]; immobilized - 60 min reaction): 0.0 µM
(GR)8 ((GR)10 [2]; immobilized - 60 min reaction): 0.0 µM
(GR)10 ((GR)10 [2]; immobilized - 60 min reaction): 0.0 µM
(GR)1 ((GR)10 [2]; resin wash from 5 min reaction): 131.9 µM
(GR)2 ((GR)10 [2]; resin wash from 5 min reaction): 0.0 µM
(GR)3 ((GR)10 [2]; resin wash from 5 min reaction): 0.0 µM
(GR)4 ((GR)10 [2]; resin wash from 5 min reaction): 0.0 µM
(GR)5 ((GR)10 [2]; resin wash from 5 min reaction): 0.0 µM
(GR)6 ((GR)10 [2]; resin wash from 5 min reaction): 0.0 µM
(GR)8 ((GR)10 [2]; resin wash from 5 min reaction): 0.0 µM
(GR)10 ((GR)10 [2]; resin wash from 5 min reaction): 0.0 µM
(GR)1 ((GR)10 [2]; [4]): 145.7 µM
(GR)2 ((GR)10 [2]; [4]): 0.0 µM
(GR)3 ((GR)10 [2]; [4]): 0.0 µM
(GR)4 ((GR)10 [2]; [4]): 0.0 µM
(GR)5 ((GR)10 [2]; [4]): 0.0 µM
(GR)6 ((GR)10 [2]; [4]): 0.0 µM
(GR)8 ((GR)10 [2]; [4]): 0.0 µM
(GR)10 ((GR)10 [2]; [4]): 0.0 µM
(GR)1 (normalized uM) ((GR)10 [3]; 5 min reaction): 1117.3 µM
(GR)2 (normalized uM) ((GR)10 [3]; 5 min reaction): 0.0 µM
(GR)3 (normalized uM) ((GR)10 [3]; 5 min reaction): 0.0 µM
(GR)4 (normalized uM) ((GR)10 [3]; 5 min reaction): 0.0 µM
(GR)5 (normalized uM) ((GR)10 [3]; 5 min reaction): 0.0 µM
(GR)6 (normalized uM) ((GR)10 [3]; 5 min reaction): 0.0 µM
(GR)8 (normalized uM) ((GR)10 [3]; 5 min reaction): 0.0 µM
(GR)10 (normalized uM) ((GR)10 [3]; 5 min reaction): 0.0 µM
(GR)1 (normalized uM) ((GR)10 [3]; 60 min reaction): 1197.4 µM
(GR)2 (normalized uM) ((GR)10 [3]; 60 min reaction): 0.0 µM
(GR)3 (normalized uM) ((GR)10 [3]; 60 min reaction): 0.0 µM
(GR)4 (normalized uM) ((GR)10 [3]; 60 min reaction): 0.0 µM
(GR)5 (normalized uM) ((GR)10 [3]; 60 min reaction): 0.0 µM
(GR)6 (normalized uM) ((GR)10 [3]; 60 min reaction): 0.0 µM
(GR)8 (normalized uM) ((GR)10 [3]; 60 min reaction): 0.0 µM
(GR)10 (normalized uM) ((GR)10 [3]; 60 min reaction): 0.0 µM
